{
  "source": "the DeepSol protein solubility set",
  "data": [
    {"assay": "soluble on expression in E. coli; label from the status in PepcDB or PDB records", "values": [
      {"sequence": "ASEKLRSKLMSADEAAQFVNHGDKVGFSGFTGAGYPKALPTAIANRAKEAHGAGNDYAIDLFTGASTAPDCDGVLAEADAIRWRMPYASDPIMRNKINSGSMGYSDIHLSHSGQQVEEGFFGQLNVAVIEITRITEEGYIIPSSSVGNNVEWLNAAEKVILEVNSWQSEDLEGMHDIWSVPALPNRIAVPINKPGDRIGKTYIEFDTDKVVAVVETNTADRNAPFKPVDDISKKIAGNFLDFLESEVAAGRLSYDGYIMQSGVGNVPNAVMAGLLESKFENIQAYTEVIQDGMVDLIDAGKMTVASATSFSLSPEYAEKMNNEAKRYRESIILRPQQISNHPEVIRRVGLIATNGLIEADIYGNVNSTNVSGSRVMNGIGGSGDFTRNGYISSFITPSEAKGGAISAIVPFASHIDHTEHDVMVVISEYGYADLRGLAPRERVAKMIGLAHPDYRPLLEEYYARATSGDNKYMQTPHDLATAFDFHINLAKNGSM", "soluble on expression in E. coli": "not soluble"},
      {"sequence": "MGSDKIHHHHHHMHYQFFATCPRGLEPLLEDELNSIRARQIKPTDGGVGFAGDMLLCYRANLESRIATRILLQVGKGRYSNEDELYQGAYKIDWVQWFEVEQDFMVKVTGVRCPLKSLEFATLRIKDAICDRFREEVGSRPSIDTREPDVRVHAYLGAEEYQLYVDTSGNALYQRGLRRASIEAPLRENLAAGILKLSGWQPGTPLLDPMCGSGTFLLEAAMISLDIAPGSNRSFGFERLKNFNAGAWQSLLKQAKSRAKPVAFQGIYGSDADLRAVRITRKNLEQAGLLDAMQVAHREFTDVVPPAAEGILVANPPYGVRIGEDEELAALYPKMGEALKKKFAGWNAYFLTNDMRLPKLMRLSPTKRTPLFNGPLECRVFEIKMVAGSNRKEKSND", "soluble on expression in E. coli": "not soluble"},
      {"sequence": "MPAPDLGFALSLPPKKAIEWLESKKVTAESYRNLTASEIAKVYTIARMTDLDMLNDIKTSMVESAKSGQSFDDWRKGILNLLSNKGWLHPNGHNGKDIIDPATGEVFGSPRRLETIYRTNMQTAYNAGQYQGYMANIDARPYWMYDAVGDSRTRPAHSAIDGLVYRYDDPFWATFYPPNGYNCRCSVIALSERDVERQGRIVGQSTADNLVETHKIYNKKGDTYLTLAYKAPDGSLYTTDRGFDYNAGRMNYRPDLDKYDRALAHQFAKAEMGGADFKTSFKQLEKEFYEVKQRLDIDGKPDKEQKIKIRNALSRQLKFAAGVLSKETQELAGMTRATVWLSDDTLVKQVDSREGQNFDDSYYAFLPDMLQNPEHVIRDNRELIFTARYKGSALWAVLKYIKEVDEIYLQSYRISNDKEIAKFMAKKKVLK", "soluble on expression in E. coli": "not soluble"},
      {"sequence": "NKYYKLGEIAQKVLVGGEKPADFSKEKNEVYKYPILSNNSKAEEFLVYSKTFRVEEKSITVSARGTIGAVFYRDFAYLPAVSLICFVPKEEFDIRFLFHALRAIKFKKQGSATGQLTVAQFKEYGIHVPSLKKQKEIAAILDPLYS", "soluble on expression in E. coli": "not soluble"},
      {"sequence": "GSHMAARRGALIVLEGVDGAGKSTQSRKLVEALCAAGHRAELLRFPERSTEIGKLLSSYLQKKSDVEDHSVHLLFSANRWEQVPLIKEKLSQGVTLVVDRYAFSGVAFTGAKENFSLDWCKQPDVGLPKPDLVLFLQLQLADAAKRGRARGELERYENGAFQERALRCFHQLMKDTTLNWKMVDASKSIEAVHEDIRVLSEDAIATATEKPLGELWK", "soluble on expression in E. coli": "soluble"},
      {"sequence": "MGSDKIHHHHHHMPTIHFVDGEKGGVGKSLFARTMIQYCLDKRIPFVPVETDRSNPDVAGVYKEICKYAVFSENERQANKADRIFEWAIERPVIVNLAAQSHRAVQGWIESNQLLELGSSQGVMFCKWFISTGGYDSINLFTQSVNTYGEKIPHILVRNLGLCDDWEHLESDSNFQNIVNKYQIKVIDFPKLAYRERNIIDQNRLTFAEAREYKEFGIIGKQRVVNFLKLAYGAFEKVGIWYEKVE", "soluble on expression in E. coli": "not soluble"},
      {"sequence": "DIQMTQSPSSLSASVGDRVTITCKASQDIKSFLSWYQQKPEKAPKSLIYYATSLADGVPSRFSGSGSGTDYTLTISSLQPEDFATYYCLQHGESPYTFGGGTKVEIKRTVAAPSVFIFPPSDEQLKSGTASVVCLLNNFYPREAKVQWKVDNALQSGNSQESVTEQDSKDSTYSLSSTLTLSKADYEKHKVYACEVTHQGLSSPVTKSFNRGECT", "soluble on expression in E. coli": "soluble"},
      {"sequence": "GMTLAALCQGVLERLDPRQPGRQLVALSGAPGSGKSTLSNPLAAALSAQGLPAEVVPMDGFHLDNRLLEPRGLLPRKGAPETFDFEGFQRLCHALKHQERVIYPLFDRARDIAIAGAAEVGPECRVAIIEGNYLLFDAPGWRDLTAIWDVSIRLEVPMADLEARLVQRWLDHGLNHDAAVARAQGNDLANARAIEAARLPADLTWPQA", "soluble on expression in E. coli": "soluble"},
      {"sequence": "MAAIDLNSDLGESYGAWRMGDDEAMLAIVSSANIACGFHAGDPAGIYRTVKAAAEKGVVVGAHVSYPDRVGFGRRDLDATSEELIADVIYQIGALKGVAAAAGTTVRYVKPHGALYNRIANDAKQGQAVIDGIKAIDPSLVLMGLANAPILDLARKAGLAVVAEAFADRAYTPEGQLVSRREAGAVLHDAAKIAERMVQLAREGTLEAIDGSIIKIEAQSICVHGDSPGAVAIAQEIRRRFEADGIAIRSFASDRLEHHHHHH", "soluble on expression in E. coli": "not soluble"},
      {"sequence": "MSLVSYVEVIKNGETISSCFQPFQKNENYGTITSANEQITPVIFHNLIMDMVLPKVVPIKGNKVTKMSMNLIDGFDCFYSTDDHDPKTVYVCFTLVDMPKILPIRILSGLQEYESNATNELLSSHVGQILDSFHEELVEYRNQTLNSSGNGQSSNGNGQNTISDIGDATEDQIKDVIQIMNDNIDKFLERQERVSLLVDKTSQLNSSSNKFRRKAVNIKEIMWWQKVKNITLLTFTIILEGHHHHHH", "soluble on expression in E. coli": "soluble"},
      {"sequence": "MSLRILYLDPFSGISGDMFLGLLVDLGVDPEKIKSRLEKLNVEFDLVVKKVNKKGVTATKVDVVFPRKEHHEDHIVSDHDHHHHHGRHLSEIVEVLSRLEDPLKEKAIRMFEALAEAESKIHGLSKEKVHFHEVGAMDAVIEIAGAVVGLELLEVEKVFCGTVNTGSGFVMTEHGRYPVPAPATAELLKGIPIYMDQKVRAELVTPTGAVILKILVDEFRTPILRVEKVGYGAGTMDLEIPNVLRGYLGYIEPSERTGDVLIETNVDDMNPQLFGHLMERLFEAGAKDVFFTPIYMKKNRPAVKVSVLCHESKKDEILKLLFKESTSIGARVFYPEKVEATRTLKTVKTEYGEIPVKIASFDSEIVNISPEYEACKKVAQEKGIPLKEVYRAVYKSVSEVRNDVEGHHHHHH", "soluble on expression in E. coli": "soluble"},
      {"sequence": "MGSDKIHHHHHHMFSIAIQQQQYKTYILSDETTGSQLEVVPERGGIITRWRVKGEEILYLDAERFTHPDLSVRGGVPILFPICGNLPDNSYTLNGQQYTLKQHGFARDLPWEVVEQTTKDTAALTLVLRSNEQTKAVYPFDFQLVFTYVLQGNTLEIRQEYQNLSSTQLPFSAGFHPYFLTGDKNQLEFDIPSQEYQDQQTKEVHPFNGNFDFNRDEMDFAFGHITSQSASVIDRNRQFKLTLDADDIFSMLVFWTLKGKEFYCLEPWSAPRNSLNTGEKLTVLEPGTSYKASVRLSASFF", "soluble on expression in E. coli": "not soluble"},
      {"sequence": "MQAYTQTLIHRLDKLNRQRIERALALMDLQSQRVFHLIPALFQFNHPLIPGYFSADTPFGIHLFEANPIQQQFIDDAQLTLGEPLTPADNPAILGLYTMGSTSSIGQSTSSDLDIWVCVSAQMSCEARDNLSSKCLLITDWAKSQGVEANFFIMNEERFRHNHSEALSGENCGSSQHLLLLDEFYRSAVRLAGKRLLWQIVPPEMEECYDEYVHELCSNGYLNCNEWIDFGKLNRIPAEEYFGANLWQLYKSIDSPYKSVLKAILLEAYSWEYPHTQLLSIDSKRRFFADEPDLYGMDSYYQMLEKVTRYLVRIGDSTRLDLVRRCFYLKTHEKLSREPGVGSMPWRREALRELTSEWQWSADLIAELDNRRHWKVEQVKVVHHALLDALMLSYRNLIQFARRNDITSAISPQDISILARKLYAAFEVLPGKVTLLNPQISPDLHEPDLSFIEVCAGRTNKPGWYLYKQPLQAQRLIGQPYLEHNEYLSKLVAWAFFNGLITESTRLHAVVREAQLDIDKFYQMVSDLRNTFSLRKRRPTMQALANPCEISQLAMFINFEHDPTSELSGKALKVDLKNIDIFSFGAEQKCLVGSVDLVYRNSWQEVRTLHFEGQTAMLDALKTVLGKMHQDALPPESVDVFCYSKNLRGVMRNLVYQLLAECIDLRLKPMEQEKRRRFKALRMGDQMYGLFFERRGVSVQKLENSVDFYRSISTNKLKGSPLLMLDRDQDYPLPAVVDSFASEGLVQFFFEDTEKGFNIYVLDEANRVEVYHQFNGEKDEMIASVNSFYTSMLDDSNKLGAKSINFNLPQYYQIIHPEEGETYVVPYRNDSAVYSKPSQVVNA", "soluble on expression in E. coli": "not soluble"},
      {"sequence": "MSPVEAALETLAHTMGITVIETSKLGSTLNACFHPPTQTIFIKIGLDPVTRRCAIAHELGHAHYGHNCSTPGAERQADEWAAQQLLDVGDVEAVGLECEGSAAAMAAELGVTPHLLVLWMGMYERGRIQPEKRAC", "soluble on expression in E. coli": "not soluble"},
      {"sequence": "MATPLWQTIYNNAVLLPESPKAIVHFLGGAFIAAAPQVTYRRLLEGLGDRGFAVIATPFINTFDHTTLADEVGRSYRLAYERLLALGLISPELPIFGVGHSMGSKLHLLMGCAQTSDRRGNVLLAFNNYSARRSIPLLGQLAPALDVTVEFSPSPARTLRLIRDRYSVANNLLVKFRNDEIDQTRDLIGALRDRFPETSEWLRLSGNHLTPVGQSLPQQTGLAWLDGVSQLASRELGRDLEVVTTAIADWCDRQLTAPATVVLEHHHHHH", "soluble on expression in E. coli": "not soluble"},
      {"sequence": "MSAKGKHVVVIGGGDTGADCITTSVRHGAKSITQFDINREKSNERPDNNPWPLFPIVHTVEDGHKEAAAVYGKDPRAYQVMTTKFVGDAEGHVKEIHTISVETTVHPDGSKTRVEIPGTEKVWPADLVFLAVGFTGPEEQLVRELELETDTRSNIKAEYGKYETSLEGVFAAGDNRRGQSLVVWAIHEGREAARECDKYLMGLEHHHHHH", "soluble on expression in E. coli": "not soluble"},
      {"sequence": "MNPSPSIAGLSDIEALERVPLEQRDLPSSTYELLQRSARRHGQRIALSCLLHGSAAEEPLRISYAELFARVTQTANALHRLGLESHQAVSFLLPNLPQTHYVIWGGEAAGIVNAINPLLEPEHIAELIRASNTRVLVTLAPFPGTDLWQKVAGLRAQLPELYAIVVVDPANLLPAPQREALKAQRGPLPEGVLDFDTLIADCPADRLESGRAIHPDDVASYFHTGGTTGTPKLAPHSHFNEVAMAEIMGLNADYGVDDVLLCGLPLFHVNGVMVTGLAPFHRGAQVLLAGPQGYRNPTLIQDFWKLVERYRVTSFSGVPTIYAALLQVPSDGRDLSSLRFALCGAAPMPVELIRQFEARTGLKVIEGYGLTEGTCGTSCNPRGGERRPGSIGLRLPYCQVKVAVLDGEGNYLRDAAPNEVGNLCLKGPTVFKGYLQQDRNRDIWIGDGWFNTGDLGRIDEDGYIWLTGRSKDLIIRGGHNIDPQMIEEALHRHPAVALAAAVGKPDAKAGELPVAYIQLKPGASASEEELLEHASRHVPERAAVPKDIWLIESMPVTAVGKTFKPALRLDAIRRVLEEESRRIAEDIRVEVVADERHGQLAHLHVPALDERRQAALEELLGGYALNYRL", "soluble on expression in E. coli": "not soluble"},
      {"sequence": "MIKLSNITKVFHQGTRTIQALNNVSLHVPAGQIYGVIGASGAGKSTLIRCVNLLERPTEGSVLVDGQELTTLSESELTKARRQIGMIFQHFNLLSSRTVFGNVALPLELDNTPKDEVKRRVTELLSLVGLGDKHDSYPSNLSGGQKQRVAIARALASNPKVLLCDEATSALDPATTRSILELLKDINRRLGLTILLITHEMDVVKRICDCVAVISNGELIEQDTVSEVFSHPKTPLAQKFIQSTLHLDIPEDYQERLQAEPFTDCVPMLRLEFTGQSVDAPLLSETARRFNVNNNIISAQMDYAGGVKFGIMLTEMHGTQQDTQAAIAWLQEHHVKVEVLGYV", "soluble on expression in E. coli": "soluble"},
      {"sequence": "MRIRIRVLSHFSSALGFDESSFSIGEGITFAELRSKLIEQFSAFVRPIEIGMYVNMKPVPDDYTMMDGDIVYVFPRSSTP", "soluble on expression in E. coli": "not soluble"}
    ]}
  ]
}
